According to patent US20200256877A1, “Microbiota Sequence Variants Of Tumor-Related Antigenic Epitopes” (ENTEROME S.A., priority 2017, published 2020):

Experiments:
[1] = biological target: T1, HLA-A*0201 (Homo sapiens, UniProt P04439, D140Y/D185E/D98H/E176V/E277Q/G131W/G231S/I119V/I121R/I166T/I218V/L300P/L318F/N151K/N90K/P208A/P217A/Q86G/Q94H/R138H/R169H/T345S); experiment: In vitro affinity of peptides to HLA-A*0201 on T2 cell line (FACS, anti-HLA-A2 labeling); format: cell-based; details: T2 cells; for Binding to HLA-A*0201 (in words): in vitro; for Mean fluorescence intensity: 16 hours
T1 construct: human tumoral cell T2 which expresses the HLA-A*0201 molecule; endogenous in cells; host or cells: T2 cells (human, TAP1/2 negative)
Description: A method for in vitro testing is well-known to the skilled person. For example, the skilled person may use the experimental protocol as validated for peptides presented by HLA-A*0201 in Tourdot et al., A general strategy to enhance immunogenicity of low-affinity HLA-A2.1-associated peptides: implication in the identification of cryptic tumor epitopes. Eur J Immunol. 2000 December; 30(12):3411-21. In this context, a reference peptide, such as HIV pol 589-597, may be additionally used in the test. This enables calculation of the in vitro affinity relative to the binding observed with the reference peptide, e.g. by the following equation:
Relative affinity=concentration of each peptide inducing 20% of expression of HLA-A*0201/concentration of the reference peptide inducing 20% of expression of HLA-A*0201
(where 100% is the level of HLA-A*0201 expression detected with the reference peptide, e.g. HIV pol 589-597, for example used at a 100 μM concentration).
The experimental protocol is similar to the one that was validated for peptides presented by the HLA-A*0201 (Tourdot et al., A general strategy to enhance immunogenicity of low-affinity HLA-A2.1-associated peptides: implication in the identification of cryptic tumor epitopes. Eur J Immunol. 2000 December; 30(12):3411-21). Affinity measurement of the peptides is achieved with the human tumoral cell T2 which expresses the HLA-A*0201 molecule, but which is TAP1/2 negative and incapable of presenting endogenous peptides.
(§1) T2 cells (2.10^5 cells per well) were incubated with decreasing concentrations of peptides from 100 μM to 0.1 μM in a AIMV medium supplemented with 100 ng/μl of human β2m at 37° C. for 16 hours. Cells were then washed two times and marked with the anti-HLA-A2 antibody coupled to PE (clone BB7.2, BD Pharmagen).
The analysis was performed by FACS (Guava Easy Cyte). For each peptide concentration, the geometric mean of the labeling associated with the peptide of interest was subtracted from background noise and reported as a percentage of the geometric mean of the […] labeling obtained for the reference peptide HIV pol 589-597 at a concentration of 100 μM. The relative affinity is then determined as follows:
relative affinity=concentration of each peptide inducing 20% of expression of HLA-A*0201/concentration of the reference peptide inducing 20% of expression of HLA-A*0201.
The experimental protocol, materials and methods correspond to those outlined in Example 4, with the only difference that the above mentioned antigenic peptides were used.
as §1, with “β2 m” for “β2m”

[2] = test system: splenocytes (IFNγ secretion); experiment: ELISPOT-IFNγ on splenocytes of HHD DR3 and HHD DR1 mice vaccinated with IL13RA2-BL (Example 15); format: in vivo, mouse
Description: Mice were immunized with a specific vaccination peptide (vacc-pAg) combined to a common helper peptide (h-pAg).
The peptides were provided as follows: • vacc-pAg: IL13RA2-BL; all produced and provided at a 4 mg/ml (4 mM) concentration; • h-pAg: HHD-DR3 peptide (SEQ ID NO: 32); for immunization of β/A2/DR3 HHDDR3 mice provided at a 4 mg/ml (4 mM) concentration • h-pAg: UCP2 peptide (SEQ ID NO: 159); for immunization of β/A2/DR1 HHDDR1 mice provided at a 4 mg/ml (4 mM) concentration
The animals were immunized on day 0 (d0) with a prime injection, and on d14 with a boost injection. Each mouse was injected s.c. at tail base with 100 μL of an oil-based emulsion that contained: • 100 μg of vacc-pAg (25 μL of 4 mg/mL stock per mouse); • 150 μg of h-pAg (15 μL of 10 mg/mL stock per mouse); • 10 μL of PBS to reach a total volume of 50 μL (per mouse); • Incomplete Freund's Adjuvant (IFA) added at 1:1 (v:v) ratio (50 μL per mouse).
Seven days after the boost injection (i.e. on d21), the animals were euthanized and the spleen was harvested. Splenocytes were prepared by mechanical disruption of the organ followed by 70 μm-filtering and Ficoll density gradient purification.
The splenocytes were immediately used in an ELISPOT-IFNγ assay (Table 21). […]
(§2) Spots were counted on a Grand ImmunoSpot® S6 Ultimate UV Image Analyzer interfaced to the ImmunoSpot 5.4 software (CTL-Europe). […]

[3] = test system: splenocytes (IFNγ secretion); experiment: ELISPOT-IFNγ on splenocytes of β/A2/DR3 mice vaccinated with FOXM1-B2 (Example 12); format: in vivo, mouse
Description: Briefly, 15 β/A2/DR3 mice were immunized with a specific vaccination peptide (vacc-pAg) combined to a common helper peptide (h-pAg) (as outlined in Table 14 below). The vacc-pAg were compared in couples (group 1 vs. group 2). Thereby, both native and optimized versions of a single peptide were compared in each wave.
The animals were immunized on day 0 (d0) with a prime injection, and on d14 with a boost injection. Each mouse was injected s.c. at tail base with 100 μL of an oil-based emulsion that contained:
100 μg of vacc-pAg (25 μL of 4 mg/mL stock per mouse);
150 μg of h-pAg (15 μL of 10 mg/mL stock per mouse);
10 μL of PBS to reach a total volume of 50 μL (per mouse);
Incomplete Freund's Adjuvant (IFA) added at 1:1 (v:v) ratio (50 μL per mouse).
Seven days after the boost injection (i.e., on d21), the animals were euthanized and the spleen was harvested. Splenocytes were prepared by mechanical disruption of the organ followed by 70 μm-filtering and Ficoll density gradient purification.
The splenocytes were immediately used in an ELISPOT-IFNγ assay (Table 15). […]
as §2

Row | Sequence | Binding to HLA-A*0201 (in words) [1] | % of maximum HIV pol 589-597 binding activity ([1]; peptide at 6.25 μM) [%] | % of maximum HIV pol 589-597 binding activity ([1]; peptide at 25 μM) [%] | % of maximum HIV pol 589-597 binding activity ([1]; peptide at 100 μM) [%] | Response of splenocytes, ELISPOT-IFNγ (in words) ([2]; HHD DR3 and HHD DR1 mice immunized with IL13RA2-BL + helper + IFA, stimulation with IL13RA2-BL) | Immune response against human peptide IL13RA2-HL (in words) ([2]; mice immunized with IL13RA2-BL, stimulation with human peptide) | Concentration inducing 20% of expression of the HLA-A*0201 [1] [µM] | Mean fluorescence intensity ([1]; peptide at 3 μM) | Mean fluorescence intensity ([1]; peptide at 25 μM) | Mean fluorescence intensity ([1]; peptide at 100 μM) | T cell responses in the ELISPOT-IFNγ assay (in words) ([3]; β/A2/DR3 mice vaccinated with FOXM1-B2 (100 μg) + HHD-DR3 + IFA, d0 and d14) | Activation of T cells after ex vivo re-stimulation with human FOXM1-H2 (in words) ([3]; β/A2/DR3 mice vaccinated with FOXM1-B2, re-stimulation FOXM1-H2 10 μM)
1 | FLPFGFILPV (Sequence variant) [SEQ ID NO: 139] | strong binding affinity | 43 | 96 | 69 | strong response of splenocytes | effective immune response | – | – | – | – | – | –
2 | LMDLSTTEV (Sequence variant) [SEQ ID NO: 75] | bind | – | – | – | – | – | 6.7 | 12.7 | 98.2 | 105 | induced strong T cell responses | efficient activation of T cells could be observed
